Experimental data reported in article PMC3236198.

Target: ΔC SSB (Escherichia coli, UniProt P0AGE0)
Assay: EMSA; additional complexes at higher SSB:DNA ratios; EMSA: 20 mM Tris-HCl pH 8.0, 50 mM NaCl, 5% glycerol, 50 µg/ml BSA, 4 °C, 30 min, 1 pmol DNA with 0.2, 2 or 10 pmol SSB in 15 µl; fluorescence: Buffer A (composition not given in the material) with ~50 or ~200 mM NaCl
Conditions: protein: recombinant; chain copies: 4; label: 5'-32P

ΔC SSB, sequence (P0AGE0 1-113, tags or fused parts left off): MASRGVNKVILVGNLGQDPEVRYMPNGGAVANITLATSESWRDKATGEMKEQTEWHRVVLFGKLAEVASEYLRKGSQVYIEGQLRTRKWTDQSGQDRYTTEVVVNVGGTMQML

B1: 79mer ssDNA (ssDNA)
DNA: GCACTAGTGCGGATAGCCCCGTGTTGTTGTCTGACCCCCGACCCCGACGGCAATGCGGGGCAATCCCCTGGAGGCCTGC
binding result: binds
